# Molecular target: T1, CD33 (UniProt P20138 18-259, limits assumed)
# T1 construct: CD33 protein used as the active surface in the Biacore assay (about 1000 RU); also called Siglec-3; SIGLEC3
# Assay: SPR, Biacore T-200, CD33 amine-coupled on CM5 chip, antibody as analyte (31-500 nM)
# Protocol: To determine whether humanized anti-CD33 My96 antibodies bind to CD33 with equal affinity as the chimeric form, surface plasmon resonance assay using Biacore T-200 was performed. Biacore T-200 Biosensor, CM5 sensor chip, and related reagents were purchased from GE Healthcare. CD33 as the active surfaces and blank as the reference were immobilized onto the CM5 sensor chip at around 1000 RU (response units) using the Amino Coupling kit (GE Healthcare). CD33 antibodies and relevant control antibodies were diluted in HBS-EP buffer (0.01 M HEPES pH 7.4, 0.15 M NaCl, 3 mM EDTA, 0.05% v/v Surfactant P20) at varying concentrations (31-500 nM) prior to analysis. Samples were injected over the sensor surface at a flow rate of 30 μL/min over 1 min. Following completion of the association phase, dissociation was monitored in HBS-EP buffer for 3 min at the same flow rate or for 30 minutes at 37° C. for antibodies with slow koff. At the end of each cycle, the surface was regenerated using 10 mM NaOH at a flow rate of 50 μL/min over 30 sec. The biosensor curves obtained following injection of the samples over active surface were subtracted from the control curves obtained with the samples injected over reference surface prior to kinetics analysis. The data were analyzed using the Biacore T-200 evaluation software. As shown in the Table below, the humanized anti-CD33 My96 antibodies bound with similar kₒₙ and koff as the chimeric form of the antibodies.
# T1 sequence (P20138 18-259 limits assumed): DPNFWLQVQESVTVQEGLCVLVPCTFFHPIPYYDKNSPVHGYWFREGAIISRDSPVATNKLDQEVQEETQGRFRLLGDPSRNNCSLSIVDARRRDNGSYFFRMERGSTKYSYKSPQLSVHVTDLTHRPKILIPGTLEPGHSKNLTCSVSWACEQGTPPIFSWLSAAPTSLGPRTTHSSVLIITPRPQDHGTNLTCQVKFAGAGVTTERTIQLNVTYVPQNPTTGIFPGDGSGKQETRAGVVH
Binder,Kd,koff,kon
"My96-H1L2 (antibody, human IgG1, V domains shown, Humanized My96 IgG (human IgG1 frameworks), expressed in DG44 cells; also called humanized My96 VH-1/VL-2) VH: QVQLVQSGAEVKKPGASVKVSCKASGYTFTSYYMHWVRQAPGQGLEWMGVIYPGNDDISYAQKFQGRVTMTADTSTSTVYMELSSLRSEDTAVYYCAREVRLRYFDVWGAGTTVTVSS VL: NIVLTQSPDSLAVSLGERATINCKSSQSVFFSSSQKNYLAWYQQKPGQPPKLLIYWASTRESGVPDRFSGSGSGTDFTLTISSLQAEDVAVYYCHQYLSSRTFGGGTKLEIK",0.218 pM,1.03e-07 s⁻¹,473000 M⁻¹ s⁻¹
"My96-H1L1 (antibody, human IgG1, V domains shown, Humanized My96 IgG (CDRs grafted onto human IgG1 frameworks), expressed in DG44 cells; also called hMy96 H1L1; humanized My96 VH-1/VL-1) VH: QVQLVQSGAEVKKPGASVKVSCKASGYTFTSYYMHWVRQAPGQGLEWMGVIYPGNDDISYAQKFQGRVTMTADTSTSTVYMELSSLRSEDTAVYYCAREVRLRYFDVWGAGTTVTVSS VL: not shown",0.321 pM,1.44e-07 s⁻¹,447000 M⁻¹ s⁻¹
"My96-H1L3 (antibody, human IgG1, V domains shown, Humanized My96 IgG (human IgG1 frameworks), expressed in DG44 cells; also called humanized My96 VH-1/VL-3) VH: QVQLVQSGAEVKKPGASVKVSCKASGYTFTSYYMHWVRQAPGQGLEWMGVIYPGNDDISYAQKFQGRVTMTADTSTSTVYMELSSLRSEDTAVYYCAREVRLRYFDVWGAGTTVTVSS VL: NIVLTQSPDSLAVSLGERATINCKSSQSVFFSSSQKNYLAWYQQRPGQPPKLLIYWASTRESGVPDRFSGSGSGTDFTLTISRLQAEDVAVYYCHQYLSSRTFGGGTKVEIK",0.88 pM,4.95e-07 s⁻¹,563000 M⁻¹ s⁻¹
"My96-H2L1 (antibody, human IgG1, V domains shown, Humanized My96 IgG (human IgG1 frameworks), expressed in DG44 cells; also called hMy96 L1H2 (variable domains as in BsAb BC257); humanized My96 VH-2/VL-1) VH: QVQLVQSGAEVKKPGASVKVSCKASGYTFTSYYMHWVRQAPGQGLEWMGVIYPGNDDISYNQKFQGRVTMTADKSTSTVYMELSSLRSEDTAVYYCAREVRLRYFDVWGAGTTVTVSS VL: not shown",2.42 pM,1.51e-06 s⁻¹,623000 M⁻¹ s⁻¹
"My96-H3L3 (antibody, human IgG1, V domains shown, Humanized My96 IgG (human IgG1 frameworks), expressed in DG44 cells; also called humanized My96 VH-3/VL-3) VH: QVQLVQSGAEVKKPGASVKVSCKASGYTFTSYYIHWVRQAPGQGLEWMGVIYPGNDDISYAQKFQGRVTITADKSATTAYMELSSLRSEDTAVYYCAREVRLRYFDVWGQGTLVTVSS VL: NIVLTQSPDSLAVSLGERATINCKSSQSVFFSSSQKNYLAWYQQRPGQPPKLLIYWASTRESGVPDRFSGSGSGTDFTLTISRLQAEDVAVYYCHQYLSSRTFGGGTKVEIK",0.324 pM,2.03e-07 s⁻¹,625000 M⁻¹ s⁻¹

# The next lines start with the values.
Kd,koff,kon,Binder
0.321 pM,2.38e-07 s⁻¹,739000 M⁻¹ s⁻¹,"chMy96 (antibody, V domains shown, also called chimeric form of My96; chimeric anti-CD33 antibody) VH: QVQLQQPGAEVVKPGASVKMSCKASGYTFTSYYIHWIKQTPGQGLEWVGVIYPGNDDISYNQKFKGKATLTADKSSTTAYMQLSSLTSEDSAVYYCAREVRLRYFDVWGAGTTVTVSS VL: NIMLTQSPSSLAVSAGEKVTMSCKSSQSVFFSSSQKNYLAWYQQIPGQSPKLLIYWASTRESGVPDRFTGSGSGTDFTLTISSVQSEDLAIYYCHQYLSSRTFGGGTKLEIK"
0.273 pM,1.42e-07 s⁻¹,520000 M⁻¹ s⁻¹,"My96-H2L2 (antibody, human IgG1, V domains shown, Humanized My96 IgG (human IgG1 frameworks), expressed in DG44 cells; also called humanized My96 VH-2/VL-2) VH: QVQLVQSGAEVKKPGASVKVSCKASGYTFTSYYMHWVRQAPGQGLEWMGVIYPGNDDISYNQKFQGRVTMTADKSTSTVYMELSSLRSEDTAVYYCAREVRLRYFDVWGAGTTVTVSS VL: NIVLTQSPDSLAVSLGERATINCKSSQSVFFSSSQKNYLAWYQQKPGQPPKLLIYWASTRESGVPDRFSGSGSGTDFTLTISSLQAEDVAVYYCHQYLSSRTFGGGTKLEIK"
0.143 pM,9.16e-08 s⁻¹,641000 M⁻¹ s⁻¹,"My96-H2L3 (antibody, human IgG1, V domains shown, Humanized My96 IgG (human IgG1 frameworks), expressed in DG44 cells; also called humanized My96 VH-2/VL-3) VH: QVQLVQSGAEVKKPGASVKVSCKASGYTFTSYYMHWVRQAPGQGLEWMGVIYPGNDDISYNQKFQGRVTMTADKSTSTVYMELSSLRSEDTAVYYCAREVRLRYFDVWGAGTTVTVSS VL: NIVLTQSPDSLAVSLGERATINCKSSQSVFFSSSQKNYLAWYQQRPGQPPKLLIYWASTRESGVPDRFSGSGSGTDFTLTISRLQAEDVAVYYCHQYLSSRTFGGGTKVEIK"
0.00645 pM,3.63e-09 s⁻¹,563000 M⁻¹ s⁻¹,"My96-H3L1 (antibody, human IgG1, V domains shown, Humanized My96 IgG (human IgG1 frameworks), expressed in DG44 cells; also called hMy96 L1H3 (variable domains as in BsAb BC269); humanized My96 VH-3/VL-1) VH: QVQLVQSGAEVKKPGASVKVSCKASGYTFTSYYIHWVRQAPGQGLEWMGVIYPGNDDISYAQKFQGRVTITADKSATTAYMELSSLRSEDTAVYYCAREVRLRYFDVWGQGTLVTVSS VL: not shown"
0.294 pM,1.6e-07 s⁻¹,543000 M⁻¹ s⁻¹,"My96-H3L2 (antibody, human IgG1, V domains shown, Humanized My96 IgG (human IgG1 frameworks), expressed in DG44 cells; also called hMy96 L2H3 (variable domains as in BsAb BC248); humanized My96 VH-3/VL-2) VH: QVQLVQSGAEVKKPGASVKVSCKASGYTFTSYYIHWVRQAPGQGLEWMGVIYPGNDDISYAQKFQGRVTITADKSATTAYMELSSLRSEDTAVYYCAREVRLRYFDVWGQGTLVTVSS VL: NIVLTQSPDSLAVSLGERATINCKSSQSVFFSSSQKNYLAWYQQKPGQPPKLLIYWASTRESGVPDRFSGSGSGTDFTLTISSLQAEDVAVYYCHQYLSSRTFGGGTKLEIK"

# — patent US20220251192A1 (Memorial Sloan Kettering, published 2022)
